# From patent US20130287781A1 (GlaxoSmithKline, published 2013)
# Target: T1, GST-human NOGO-A56 (human)
# T1 construct: Expressed in E. coli BL21 from pGEX-6P1 and purified on glutathione-sepharose; the GST tag is part of the protein in the assays; also called GST-Nogo-A 5+6; GST Nogo-A 5 + 6
# Assay: SPR (Biacore) off-rate on NOGO chip, panel of H6FL CDR H3 variants with L13FL
# T1 sequence (chain, as listed by the source limits assumed): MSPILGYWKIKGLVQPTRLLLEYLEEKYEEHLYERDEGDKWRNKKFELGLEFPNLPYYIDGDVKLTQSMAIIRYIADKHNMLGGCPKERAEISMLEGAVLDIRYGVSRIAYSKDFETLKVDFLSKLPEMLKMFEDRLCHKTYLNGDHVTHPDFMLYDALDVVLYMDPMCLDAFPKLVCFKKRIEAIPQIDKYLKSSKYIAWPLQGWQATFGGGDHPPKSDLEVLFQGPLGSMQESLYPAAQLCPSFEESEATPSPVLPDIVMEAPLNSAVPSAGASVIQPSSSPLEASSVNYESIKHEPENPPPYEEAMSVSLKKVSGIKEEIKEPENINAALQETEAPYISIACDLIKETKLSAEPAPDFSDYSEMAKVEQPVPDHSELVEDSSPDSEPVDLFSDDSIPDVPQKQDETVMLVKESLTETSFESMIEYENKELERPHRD
row,koff,Binder
1,0.0216 s⁻¹,"H6L13 variant with VH CDR3 GQGW (antibody, human IgG1, kappa, V domains shown, Single point variant of H6FL with L13FL) VH: QVQLVQSGAEVKKPGASVKVSCKASGYTFTSYWMHWVRQAPGQGLEWIGNINPSNGGTNYNEKFKSRATMTRDTSTSTAYMELSSLRSEDTAVYYCELGQGWWGQGTLVTVSS VL: DIVMTQSPLSLPVTLGQPASISCRSSKSLLYKDGKTYLNWFQQRPGQSPQLLIYLMSTRASGVPDRFSGGGSGTDFTLKISRVEAEDVGVYYCQQLVEYPLTFGQGTKLEIKR"
2,0.0132 s⁻¹,"H6L13 variant with VH CDR3 GQLY (antibody, human IgG1, kappa, V domains shown, Single point variant of H6FL with L13FL) VH: QVQLVQSGAEVKKPGASVKVSCKASGYTFTSYWMHWVRQAPGQGLEWIGNINPSNGGTNYNEKFKSRATMTRDTSTSTAYMELSSLRSEDTAVYYCELGQLYWGQGTLVTVSS VL: DIVMTQSPLSLPVTLGQPASISCRSSKSLLYKDGKTYLNWFQQRPGQSPQLLIYLMSTRASGVPDRFSGGGSGTDFTLKISRVEAEDVGVYYCQQLVEYPLTFGQGTKLEIKR"
3,0.00966 s⁻¹,"H6L13 variant with VH CDR3 GQNY (antibody, human IgG1, kappa, V domains shown, Single point variant of H6FL with L13FL) VH: QVQLVQSGAEVKKPGASVKVSCKASGYTFTSYWMHWVRQAPGQGLEWIGNINPSNGGTNYNEKFKSRATMTRDTSTSTAYMELSSLRSEDTAVYYCELGQNYWGQGTLVTVSS VL: DIVMTQSPLSLPVTLGQPASISCRSSKSLLYKDGKTYLNWFQQRPGQSPQLLIYLMSTRASGVPDRFSGGGSGTDFTLKISRVEAEDVGVYYCQQLVEYPLTFGQGTKLEIKR"

# The next lines start with the binder.
row,Binder,koff
1,"H6L13 variant with VH CDR3 GAGY (antibody, human IgG1, kappa, V domains shown, Single point variant of H6FL with L13FL) VH: QVQLVQSGAEVKKPGASVKVSCKASGYTFTSYWMHWVRQAPGQGLEWIGNINPSNGGTNYNEKFKSRATMTRDTSTSTAYMELSSLRSEDTAVYYCELGAGYWGQGTLVTVSS VL: DIVMTQSPLSLPVTLGQPASISCRSSKSLLYKDGKTYLNWFQQRPGQSPQLLIYLMSTRASGVPDRFSGGGSGTDFTLKISRVEAEDVGVYYCQQLVEYPLTFGQGTKLEIKR",0.0315 s⁻¹
2,"H6L13 variant with VH CDR3 GIGY (antibody, human IgG1, kappa, V domains shown, Single point variant of H6FL with L13FL) VH: QVQLVQSGAEVKKPGASVKVSCKASGYTFTSYWMHWVRQAPGQGLEWIGNINPSNGGTNYNEKFKSRATMTRDTSTSTAYMELSSLRSEDTAVYYCELGIGYWGQGTLVTVSS VL: DIVMTQSPLSLPVTLGQPASISCRSSKSLLYKDGKTYLNWFQQRPGQSPQLLIYLMSTRASGVPDRFSGGGSGTDFTLKISRVEAEDVGVYYCQQLVEYPLTFGQGTKLEIKR",0.0257 s⁻¹
3,"H6L13 variant with VH CDR3 GQSY (antibody, human IgG1, kappa, V domains shown, Single point variant of H6FL with L13FL) VH: QVQLVQSGAEVKKPGASVKVSCKASGYTFTSYWMHWVRQAPGQGLEWIGNINPSNGGTNYNEKFKSRATMTRDTSTSTAYMELSSLRSEDTAVYYCELGQSYWGQGTLVTVSS VL: DIVMTQSPLSLPVTLGQPASISCRSSKSLLYKDGKTYLNWFQQRPGQSPQLLIYLMSTRASGVPDRFSGGGSGTDFTLKISRVEAEDVGVYYCQQLVEYPLTFGQGTKLEIKR",0.0186 s⁻¹
4,"H6L13 variant with VH CDR3 GQFY (antibody, human IgG1, kappa, V domains shown, Single point variant of H6FL with L13FL) VH: QVQLVQSGAEVKKPGASVKVSCKASGYTFTSYWMHWVRQAPGQGLEWIGNINPSNGGTNYNEKFKSRATMTRDTSTSTAYMELSSLRSEDTAVYYCELGQFYWGQGTLVTVSS VL: DIVMTQSPLSLPVTLGQPASISCRSSKSLLYKDGKTYLNWFQQRPGQSPQLLIYLMSTRASGVPDRFSGGGSGTDFTLKISRVEAEDVGVYYCQQLVEYPLTFGQGTKLEIKR",0.0335 s⁻¹
5,"H6L13 variant with VH CDR3 GDGY (antibody, human IgG1, kappa, V domains shown, Single point variant of H6FL with L13FL) VH: QVQLVQSGAEVKKPGASVKVSCKASGYTFTSYWMHWVRQAPGQGLEWIGNINPSNGGTNYNEKFKSRATMTRDTSTSTAYMELSSLRSEDTAVYYCELGDGYWGQGTLVTVSS VL: DIVMTQSPLSLPVTLGQPASISCRSSKSLLYKDGKTYLNWFQQRPGQSPQLLIYLMSTRASGVPDRFSGGGSGTDFTLKISRVEAEDVGVYYCQQLVEYPLTFGQGTKLEIKR",0.0212 s⁻¹
6,"H6L13 variant with VH CDR3 GLGY (antibody, human IgG1, kappa, V domains shown, Single point variant of H6FL with L13FL) VH: QVQLVQSGAEVKKPGASVKVSCKASGYTFTSYWMHWVRQAPGQGLEWIGNINPSNGGTNYNEKFKSRATMTRDTSTSTAYMELSSLRSEDTAVYYCELGLGYWGQGTLVTVSS VL: DIVMTQSPLSLPVTLGQPASISCRSSKSLLYKDGKTYLNWFQQRPGQSPQLLIYLMSTRASGVPDRFSGGGSGTDFTLKISRVEAEDVGVYYCQQLVEYPLTFGQGTKLEIKR",0.019 s⁻¹
